Measured values taken from US20220363757A1.

Experiments:
Experiment in all cases: SPR, Fab over captured mutant LAG-3-Fc
[1] = biological target: human LAG-3 domain 1-2 Fc fusion, point mutation #6 T47A (human) (UniProt P18627)
[2] = biological target: human LAG-3 domain 1-2 Fc fusion, point mutation #46 Y99A (human) (UniProt P18627)
[3] = biological target: human LAG-3 domain 1-2 Fc fusion, point mutation #48 V101A (human) (UniProt P18627)
[4] = biological target: human LAG-3 domain 1-2 Fc fusion, chimeric construct #4 (mutated region AA 40-47) (human) (UniProt P18627)
[5] = biological target: human LAG-3 domain 1-2 Fc fusion, point mutation #7 P49A (human) (UniProt P18627)
[6] = biological target: human LAG-3 domain 1-2 Fc fusion, chimeric construct #17 (mutated region AA 114-117) (human) (UniProt P18627)
[7] = biological target: human LAG-3 domain 1-2 Fc fusion, point mutation #17 Q66A (human) (UniProt P18627)
[8] = biological target: human LAG-3 domain 1-2 Fc fusion, chimeric construct #2 (mutated region AA 29-30) (human) (UniProt P18627)
[9] = biological target: human LAG-3 domain 1-2 Fc fusion, chimeric construct #8 (mutated region AA 59-66) (human) (UniProt P18627)
[10] = biological target: human LAG-3 domain 1-2 Fc fusion, point mutation #27 L80A (human) (UniProt P18627)
[11] = biological target: human LAG-3 domain 1-2 Fc fusion, chimeric construct #3 (mutated region AA 40-41) (human) (UniProt P18627)
[12] = biological target: human LAG-3 domain 1-2 Fc fusion, point mutation #65 R125A (human) (UniProt P18627)
[13] = biological target: human LAG-3 domain 1-2 Fc fusion, point mutation #54 R110A (human) (UniProt P18627)
[14] = biological target: human LAG-3 domain 1-2 Fc fusion, point mutation #25 H78A (human) (UniProt P18627)
[15] = biological target: human LAG-3 domain 1-2 Fc fusion, point mutation #70 G130A (human) (UniProt P18627)
[16] = biological target: human LAG-3 domain 1-2 Fc fusion, point mutation #66 G126A (human) (UniProt P18627)
[17] = biological target: human LAG-3 domain 1-2 Fc fusion, point mutation #45 R98A (human) (UniProt P18627)
[18] = biological target: human LAG-3 domain 1-2 Fc fusion, point mutation #22 A75S (human) (UniProt P18627)
[19] = biological target: human LAG-3 domain 1-2 Fc fusion, point mutation #42 R95A (human) (UniProt P18627)
[20] = biological target: human LAG-3 domain 1-2 Fc fusion, point mutation #75 R141A (human) (UniProt P18627)
[21] = biological target: human LAG-3 domain 1-2 Fc fusion, point mutation #21 A74S (human) (UniProt P18627)
[22] = biological target: human LAG-3 domain 1-2 Fc fusion, point mutation #52 G108A (human) (UniProt P18627)
[23] = biological target: human LAG-3 domain 1-2 Fc fusion, chimeric construct #25 (mutated region AA 154-158) (human) (UniProt P18627)
[24] = biological target: human LAG-3 domain 1-2 Fc fusion, point mutation #32 H85A (human) (UniProt P18627)
[25] = biological target: human LAG-3 domain 1-2 Fc fusion, point mutation #56 G112A (human) (UniProt P18627)
[26] = biological target: human LAG-3 domain 1-2 Fc fusion, point mutation #77 R148A (human) (UniProt P18627)
[27] = biological target: human LAG-3 domain 1-2 Fc fusion, chimeric construct #18 (mutated region AA 114-119) (human) (UniProt P18627)
[28] = biological target: human LAG-3 domain 1-2 Fc fusion, point mutation #69 R129A (human) (UniProt P18627)
[29] = biological target: human LAG-3 domain 1-2 Fc fusion, point mutation #74 P138A (human) (UniProt P18627)
[30] = biological target: human LAG-3 domain 1-2 Fc fusion, point mutation #38 S91A (human) (UniProt P18627)
[31] = biological target: human LAG-3 domain 1-2 Fc fusion, point mutation #11 L56A (human) (UniProt P18627)
[32] = biological target: human LAG-3 domain 1-2 Fc fusion, point mutation #33 P86A (human) (UniProt P18627)
[33] = biological target: human LAG-3 domain 1-2 Fc fusion, point mutation #30 G83A (human) (UniProt P18627)
human LAG-3 domain 1-2 Fc fusion, point mutation #30 G83A (human), sequence (P18627 23-266 G83A): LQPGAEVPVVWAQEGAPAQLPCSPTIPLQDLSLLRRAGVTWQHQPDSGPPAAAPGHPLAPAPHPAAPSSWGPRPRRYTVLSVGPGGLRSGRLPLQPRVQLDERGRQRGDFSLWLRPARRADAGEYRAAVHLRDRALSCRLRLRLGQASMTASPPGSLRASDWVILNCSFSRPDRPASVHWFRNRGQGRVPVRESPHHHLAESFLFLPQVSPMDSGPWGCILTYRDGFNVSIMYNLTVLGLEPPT

human LAG-3 domain 1-2 Fc fusion, point mutation #25 H78A (human), sequence (P18627 23-266 H78A): as the sequence (P18627 23-266 G83A) above, with H56A, A61G counted along it
human LAG-3 domain 1-2 Fc fusion, point mutation #21 A74S (human), sequence (P18627 23-266 A74S): as the sequence (P18627 23-266 G83A) above, with A52S, A61G counted along it
human LAG-3 domain 1-2 Fc fusion, point mutation #33 P86A (human), sequence (P18627 23-266 P86A): as the sequence (P18627 23-266 G83A) above, with A61G, P64A counted along it
human LAG-3 domain 1-2 Fc fusion, point mutation #7 P49A (human), sequence (P18627 23-266 P49A): as the sequence (P18627 23-266 G83A) above, with P27A, A61G counted along it
human LAG-3 domain 1-2 Fc fusion, point mutation #65 R125A (human), sequence (P18627 23-266 R125A): as the sequence (P18627 23-266 G83A) above, with A61G, R103A counted along it
human LAG-3 domain 1-2 Fc fusion, chimeric construct #25 (mutated region AA 154-158) (human), sequence (P18627 other isoform, or with tags, fused parts or gaps mutant): as the sequence (P18627 23-266 G83A) above, with A61G, R132P, A135D, L136F counted along it
human LAG-3 domain 1-2 Fc fusion, point mutation #56 G112A (human), sequence (P18627 23-266 G112A): as the sequence (P18627 23-266 G83A) above, with A61G, G90A counted along it
human LAG-3 domain 1-2 Fc fusion, chimeric construct #3 (mutated region AA 40-41) (human), sequence (P18627 other isoform, or with tags, fused parts or gaps mutant): as the sequence (P18627 23-266 G83A) above, with A18V, Q19H, A61G counted along it
human LAG-3 domain 1-2 Fc fusion, point mutation #6 T47A (human), sequence (P18627 23-266 T47A): as the sequence (P18627 23-266 G83A) above, with T25A, A61G counted along it
human LAG-3 domain 1-2 Fc fusion, point mutation #77 R148A (human), sequence (P18627 23-266 R148A): as the sequence (P18627 23-266 G83A) above, with A61G, R126A counted along it
human LAG-3 domain 1-2 Fc fusion, point mutation #48 V101A (human), sequence (P18627 23-266 V101A): as the sequence (P18627 23-266 G83A) above, with A61G, V79A counted along it
human LAG-3 domain 1-2 Fc fusion, point mutation #54 R110A (human), sequence (P18627 23-266 R110A): as the sequence (P18627 23-266 G83A) above, with A61G, R88A counted along it
human LAG-3 domain 1-2 Fc fusion, point mutation #66 G126A (human), sequence (P18627 23-266 G126A): as the sequence (P18627 23-266 G83A) above, with A61G, G104A counted along it
human LAG-3 domain 1-2 Fc fusion, point mutation #70 G130A (human), sequence (P18627 23-266 G130A): as the sequence (P18627 23-266 G83A) above, with A61G, G108A counted along it
human LAG-3 domain 1-2 Fc fusion, point mutation #46 Y99A (human), sequence (P18627 23-266 Y99A): as the sequence (P18627 23-266 G83A) above, with A61G, Y77A counted along it
human LAG-3 domain 1-2 Fc fusion, point mutation #38 S91A (human), sequence (P18627 23-266 S91A): as the sequence (P18627 23-266 G83A) above, with A61G, S69A counted along it
human LAG-3 domain 1-2 Fc fusion, point mutation #22 A75S (human), sequence (P18627 23-266 A75S): as the sequence (P18627 23-266 G83A) above, with A53S, A61G counted along it
human LAG-3 domain 1-2 Fc fusion, point mutation #52 G108A (human), sequence (P18627 23-266 G108A): as the sequence (P18627 23-266 G83A) above, with A61G, G86A counted along it

## Fab fragment of 25F7-Lag3.5 analogue
[1]
  KD mutant/KD wild type: 0.8 fold
[2]
  KD mutant/KD wild type: 1 fold
[3]
  KD mutant/KD wild type: 1 fold
[4]
  KD mutant/KD wild type: 1.3 fold
[5]
  KD mutant/KD wild type: 1.1 fold
[6]
  KD mutant/KD wild type: 1.3 fold
[7]
  KD mutant/KD wild type: 0.9 fold
[8]
  KD mutant/KD wild type: 1.2 fold
[9]
  KD mutant/KD wild type: 1.3 fold
[10]
  KD mutant/KD wild type: 0.7 fold
[11]
  KD mutant/KD wild type: 1.3 fold
[12]
  KD mutant/KD wild type: 0.9 fold
[13]
  KD mutant/KD wild type: 0.9 fold
[14]
  KD mutant/KD wild type: 0.8 fold
[15]
  KD mutant/KD wild type: 1.3 fold
[16]
  KD mutant/KD wild type: 0.9 fold
[17]
  KD mutant/KD wild type: 0.9 fold
[18]
  KD mutant/KD wild type: 0.9 fold
[19]
  KD mutant/KD wild type: 1.9 fold
[20]
  KD mutant/KD wild type: 0.8 fold
[21]
  KD mutant/KD wild type: 0.9 fold
[22]
  KD mutant/KD wild type: 0.9 fold
[23]
  KD mutant/KD wild type: 0.7 fold
[24]
  KD mutant/KD wild type: 14.1 fold
[25]
  KD mutant/KD wild type: 0.9 fold
[26]
  KD mutant/KD wild type: 1.2 fold
[27]
  KD mutant/KD wild type: 0.8 fold
[28]
  KD mutant/KD wild type: 1.2 fold
[29]
  KD mutant/KD wild type: 1 fold
[30]
  KD mutant/KD wild type: 2.2 fold
[31]
  KD mutant/KD wild type: 0.9 fold
[32]
  KD mutant/KD wild type: 2.7 fold
[33]
  KD mutant/KD wild type: 1 fold
